What is called Kd is the concentration at which binding is half-saturated. Read a low Kd as higher affinity.

Among the data in article PMC3501490 (PLoS ONE, 2012) are Kd values, retold here.

This assay concerns the target PI3K p85 SH2 domains. The assay can be described thus: SPR (BIAcore 3000), PI3K p85 SH2 domains. The class given is binding. The conditions noted are these: HBS pH 7.4, 37°C, n = 3. As to the method:
Experiments were conducted on a BIAcore™ 3000 in HBS buffer (0.01 M HEPES, pH 7.4, containing 0.15 M NaCl, 3 mM EDTA, and 0.005% v/v P-20, GE Life Sciences, Amersham, UK). Streptavidin was coupled to a research grade CM5 chip (GE Life Sciences, Amersham, UK) as previously described, [13]. Protein-peptide interactions were carried out a rate of 10 µl/min at a constant temperature of 37°C to more accurately reflect physiological conditions. Biotinylated peptides were bound to the streptavidin-coated CM5 chips at 37°C to between 25–50 RU [14]. Purified monomeric SH2 domains were passed over the immobilised peptides at a range of concentrations. Anti-phosphotyrosine monoclonal antibody (Sigma, Poole, U.K.) was passed over the chip to saturation at the end of each experiment to verify peptide coverage on the chip. Binding affinities for the single ITIM/ITSM peptides were determined by plotting equilibrium binding measurements (RU) against SH2 domain protein concentration (Origin 8, OriginLab, MA, USA). KD was defined as the concentration of SH2 protein that gave half maximal binding to the peptide. For the 60-mer peptides, SH2 domains were passed over the chip surface at 50 µl/min. KD was determined as Koff/Kon, which were determined using both GraphPad Prism 5.0 (GraphPad, La Jolla, CA, USA) and BIAevaluation Software (GE Life Sciences, Amersham,UK). […]
Background: In SPR one partner is held on a chip, and binding of the other changes the refractive index at the surface.

B1: G6B-b: inhibitory platelet receptor; affinities measured with its dual phosphopeptide (protein, UniProt O95866 18-241, looked up)
Megakaryocyte and platelet …: NPGASLDGRPGDRVNLSCGGVSHPIRWVWAPSFPACKGLSKGRRPILWASSSGTPTVPPLQPFVGRLRSLDSGIRRLELLLSAGDSGTFFCKGRHEDESRTVLHVLGDRTYCKAPGPTHGSVYPQLLIPLLGAGLVLGLGALGLVWWLHRRLPPQPIRPLPRFAPLVKTEPQRPVKEEEPKIPGDLDQEPSLLYADLDHLALSRPRRLSTADPADASTIYAVVV
Turning to B1, the Kd was roughly 1000 nM.
